The assay deals with EGFR on HeLa cells (UniProt P00533 25-1210, limits assumed). The assay is described as follows: cell-based or functional assay.

B1: GOMP001_bsAb_017 (bispecific antibody, human IgG1, kappa, L234A L235A)
heavy 1: QVQLVQSGAEVKKPGASVKVSCKASGYTFTSHWMHWVRKAPGQGLEWIGEFNPSNGRTNYNEEFKSKATMTVDTSTNTAYMELSSLRSEDTAVYYCASRDYDYDGRYFDYWGQGTLVTVSSASTKGPSVFPLAPSSKSTSGGTAALGCLVADYFPEPVTVSWNSGALTSGVHTFPAVLQSSGLYSLSSVVTVPSSSLGTQTYICNVNHKPSNTKVDEKVEPKSCDKTHTCPPCPAPEAAGGPSVFLFPPKPKDTLMISRTPEVTCVVVDVSHEDPEVKFNWYVDGVEVHNAKTKPREEQYNSTYRVVSVLTVLHQDWLNGKEYKCKVSNKALPAPIEKTISKAKGQPREPQVYTLPPSREEMTDNQVSLTCLVKGFYPSDIAVEWESNGQPENNYKTTPPVLMSDGSFFLASKLTVDKSRWQQGNVFSCSVMHEALHNHYTQKSLSLSPG
light 1: RIQMTQSPSSLSASVGDRVTITCSASSSVTYMYWYQDKPGKAPKLLIYDTSNLASGVPSRFSGSGSGTDYTFTISSLQPEDIATYYCQQWSSHIFTFGQGTKVEIKRTVAAPSVFIFPPSDKQLKSGTARVVCLLNNFYPREAKVQWKVDNALQSGNSQESVTEQDSKDSTYSLSSTLTLSKADYEKHKVYACEVTHQGLSSPVTKSFNRGEC
heavy 2: EVQLVESGGDLVQPGRSLRLSCAASGFTFDDCVIHWVRYAPGKGLEWVSGITWNSGRIGYADRVKGRFTISRDNAKNSLYLQMNSLRVEDTALYYCAKEGNYDFWSTYYRGYFDLWGRGTLVTVSSASTKGPSVFPLAPSSKSTSGGTAALGCLVKDYFPEPVTVSWNSGALTSGVHTFPAVLQSSGLYSLSSVVTVPSSSLGTQTYICNVNHKPSNTKVDKKVEPKSCDKTHTCPPCPAPEAAGGPSVFLFPPKPKDTLMISRTPEVTCVVVDVSHEDPEVKFNWYVDGVEVHNAKTKPREEQYNSTYRVVSVLTVLHQDWLNGKEYKCKVSNKALPAPIEKTISKAKGQPRRPRVYTLPPSREEMTKNQVSLVCLVKGFYPSDIAVEWESNGQPENNYKTTPPVLDSDGSFFLYSVLTVDKSRWQQGNVFSCSVMHEALHNHYTQKSLSLSPG
light 2: DIQMTQSPSSLSASVGDRVTITCRASQGIRNDLGWYQRKPGDAPKRLIYAASSLQGGVPLRFSGSGSGTEFTLTISSLQPEDFATYYCLQHNSYPYTFGQGTKLEIKRTVAAPSVFIFPPSDEQLKSGTASVVCLLNNFYPREAKVQWKVDNALQSGNSQESVTEQDSKDSTYSLSSTLTLSKADYEKHKVYACEVTHQGLSSPVTKSFNRGEC
In the case of B1, the Max killing % was determined as 91.4% and the “X… HeLa EC50” value came to 0.705 nM.

B2: GOMP001_bsAb_018 (bispecific antibody, human IgG1, kappa, L234A L235A)
heavy 1: EVQLVESGGDLVQPGRSLRLSCAASGFTFDDCVIHWVRKAPGKGLEWVSGITWNSGRIGYADEVKGRFTISRDNAKNSLYLQMNSLRVEDTALYYCAKEGNYDFWSTYYRGYFDLWGRGTLVTVSSASTKGPSVFPLAPSSKSTSGGTAALGCLVADYFPEPVTVSWNSGALTSGVHTFPAVLQSSGLYSLSSVVTVPSSSLGTQTYICNVNHKPSNTKVDEKVEPKSCDKTHTCPPCPAPEAAGGPSVFLFPPKPKDTLMISRTPEVTCVVVDVSHEDPEVKFNWYVDGVEVHNAKTKPREEQYNSTYRVVSVLTVLHQDWLNGKEYKCKVSNKALPAPIEKTISKAKGQPREPQVYTLPPSREEMTDNQVSLTCLVKGFYPSDIAVEWESNGQPENNYKTTPPVLMSDGSFFLASKLTVDKSRWQQGNVFSCSVMHEALHNHYTQKSLSLSPG
light 1: RIQMTQSPSSLSASVGDRVTITCRASQGIRNDLGWYQDKPGIAPKRLIYAASSLQGGVPLRFSGSGSGTEFTLTISSLQPEDFATYYCLQHNSYPYTFGQGTKLEIKRTVAAPSVFIFPPSDKQLKSGTARVVCLLNNFYPREAKVQWKVDNALQSGNSQESVTEQDSKDSTYSLSSTLTLSKADYEKHKVYACEVTHQGLSSPVTKSFNRGEC
heavy 2: QVQLVQSGAEVKKPGASVKVSCKASGYTFTSHWMHWVRYAPGQGLEWIGEFNPSNGRTNYNEKFKSKATMTVDTSTNTAYMELSSLRSEDTAVYYCASRDYDYDGRYFDYWGRGTLVTVSSASTKGPSVFPLAPSSKSTSGGTAALGCLVKDYFPEPVTVSWNSGALTSGVHTFPAVLQSSGLYSLSSVVTVPSSSLGTQTYICNVNHKPSNTKVDKKVEPKSCDKTHTCPPCPAPEAAGGPSVFLFPPKPKDTLMISRTPEVTCVVVDVSHEDPEVKFNWYVDGVEVHNAKTKPREEQYNSTYRVVSVLTVLHQDWLNGKEYKCKVSNKALPAPIEKTISKAKGQPRRPRVYTLPPSREEMTKNQVSLVCLVKGFYPSDIAVEWESNGQPENNYKTTPPVLDSDGSFFLYSVLTVDKSRWQQGNVFSCSVMHEALHNHYTQKSLSLSPG
light 2: DIQMTQSPSSLSASVGDRVTITCSASSSVTYMYWYQRKPGDAPKLLIYDTSNLASGVPSRFSGSGSGTDYTFTISSLQPEDIATYYCQQWSSHIFTFGQGTKVEIKRTVAAPSVFIFPPSDEQLKSGTASVVCLLNNFYPREAKVQWKVDNALQSGNSQESVTEQDSKDSTYSLSSTLTLSKADYEKHKVYACEVTHQGLSSPVTKSFNRGEC
Take B2: the Max killing % came to 97.3% and the “X… HeLa EC50” value worked out at 0.111 nM.

B3: GOMP001_bsAb_019 (bispecific antibody, human IgG1, kappa, L234A L235A)
heavy 1: QVQLVQSGAEVKKPGASVKVSCKASGYTFTSHWMHWVRKAPGQGLEWIGEFNPSNGRTNYNEEFKSKATMTVDTSTNTAYMELSSLRSEDTAVYYCASRDYDYDGRYFDYWGQGTLVTVSSASTKGPSVFPLAPSSKSTSGGTAALGCLVADYFPEPVTVSWNSGALTSGVHTFPAVLQSSGLYSLSSVVTVPSSSLGTQTYICNVNHKPSNTKVDEKVEPKSCDKTHTCPPCPAPEAAGGPSVFLFPPKPKDTLMISRTPEVTCVVVDVSHEDPEVKFNWYVDGVEVHNAKTKPREEQYNSTYRVVSVLTVLHQDWLNGKEYKCKVSNKALPAPIEKTISKAKGQPREPQVYTLPPSREEMTDNQVSLTCLVKGFYPSDIAVEWESNGQPENNYKTTPPVLMSDGSFFLASKLTVDKSRWQQGNVFSCSVMHEALHNHYTQKSLSLSPG
light 1: RIQMTQSPSSLSASVGDRVTITCSASSSVTYMYWYQDKPGKAPKLLIYDTSNLASGVPSRFSGSGSGTDYTFTISSLQPEDIATYYCQQWSSHIFTFGQGTKVEIKRTVAAPSVFIFPPSDKQLKSGTARVVCLLNNFYPREAKVQWKVDNALQSGNSQESVTEQDSKDSTYSLSSTLTLSKADYEKHKVYACEVTHQGLSSPVTKSFNRGEC
heavy 2: EVQLVDSGGGLVQPGGSLRLSCSGSGFTFSSYWMSWVRYAPGKGLEWVANIKQDGSQKYYVDRVKGRFTISRDNVKNSLYLQMNSLRVEDTAVYYCARDESSSWYWYFDLWGRGTLVTVSSASTKGPSVFPLAPSSKSTSGGTAALGCLVKDYFPEPVTVSWNSGALTSGVHTFPAVLQSSGLYSLSSVVTVPSSSLGTQTYICNVNHKPSNTKVDKKVEPKSCDKTHTCPPCPAPEAAGGPSVFLFPPKPKDTLMISRTPEVTCVVVDVSHEDPEVKFNWYVDGVEVHNAKTKPREEQYNSTYRVVSVLTVLHQDWLNGKEYKCKVSNKALPAPIEKTISKAKGQPRRPRVYTLPPSREEMTKNQVSLVCLVKGFYPSDIAVEWESNGQPENNYKTTPPVLDSDGSFFLYSVLTVDKSRWQQGNVFSCSVMHEALHNHYTQKSLSLSPG
light 2: DIQMTQSPSTLSASVGDRVTLTCRASQNIVKWLAWYQRKPGDAPKLLIYKASSLESGVPSWFSGSGSGTEFTLTINSLQPDDFATYYCQQYYTYSRTFGQGTKVEIKRTVAAPSVFIFPPSDEQLKSGTASVVCLLNNFYPREAKVQWKVDNALQSGNSQESVTEQDSKDSTYSLSSTLTLSKADYEKHKVYACEVTHQGLSSPVTKSFNRGEC
B3: the Max killing % is 48.3%.

B4: GOMP001_bsAb_020 (bispecific antibody, human IgG1, kappa, L234A L235A)
heavy 1: EVQLVDSGGGLVQPGGSLRLSCSGSGFTFSSYWMSWVRKAPGKGLEWVANIKQDGSQKYYVDEVKGRFTISRDNVKNSLYLQMNSLRVEDTAVYYCARDESSSWYWYFDLWGRGTLVTVSSASTKGPSVFPLAPSSKSTSGGTAALGCLVADYFPEPVTVSWNSGALTSGVHTFPAVLQSSGLYSLSSVVTVPSSSLGTQTYICNVNHKPSNTKVDEKVEPKSCDKTHTCPPCPAPEAAGGPSVFLFPPKPKDTLMISRTPEVTCVVVDVSHEDPEVKFNWYVDGVEVHNAKTKPREEQYNSTYRVVSVLTVLHQDWLNGKEYKCKVSNKALPAPIEKTISKAKGQPREPQVYTLPPSREEMTDNQVSLTCLVKGFYPSDIAVEWESNGQPENNYKTTPPVLMSDGSFFLASKLTVDKSRWQQGNVFSCSVMHEALHNHYTQKSLSLSPG
light 1: RIQMTQSPSTLSASVGDRVTLTCRASQNIVKWLAWYQDKPGKAPKLLIYKASSLESGVPSWFSGSGSGTEFTLTINSLQPDDFATYYCQQYYTYSRTFGQGTKVEIKRTVAAPSVFIFPPSDKQLKSGTARVVCLLNNFYPREAKVQWKVDNALQSGNSQESVTEQDSKDSTYSLSSTLTLSKADYEKHKVYACEVTHQGLSSPVTKSFNRGEC
heavy 2: QVQLVQSGAEVKKPGASVKVSCKASGYTFTSHWMHWVRYAPGQGLEWIGEFNPSNGRTNYNEKFKSKATMTVDTSTNTAYMELSSLRSEDTAVYYCASRDYDYDGRYFDYWGRGTLVTVSSASTKGPSVFPLAPSSKSTSGGTAALGCLVKDYFPEPVTVSWNSGALTSGVHTFPAVLQSSGLYSLSSVVTVPSSSLGTQTYICNVNHKPSNTKVDKKVEPKSCDKTHTCPPCPAPEAAGGPSVFLFPPKPKDTLMISRTPEVTCVVVDVSHEDPEVKFNWYVDGVEVHNAKTKPREEQYNSTYRVVSVLTVLHQDWLNGKEYKCKVSNKALPAPIEKTISKAKGQPRRPRVYTLPPSREEMTKNQVSLVCLVKGFYPSDIAVEWESNGQPENNYKTTPPVLDSDGSFFLYSVLTVDKSRWQQGNVFSCSVMHEALHNHYTQKSLSLSPG
light 2: DIQMTQSPSSLSASVGDRVTITCSASSSVTYMYWYQRKPGDAPKLLIYDTSNLASGVPSRFSGSGSGTDYTFTISSLQPEDIATYYCQQWSSHIFTFGQGTKVEIKRTVAAPSVFIFPPSDEQLKSGTASVVCLLNNFYPREAKVQWKVDNALQSGNSQESVTEQDSKDSTYSLSSTLTLSKADYEKHKVYACEVTHQGLSSPVTKSFNRGEC
With B4, the Max killing % came out at 79.6% and the “X… HeLa EC50” value turned out to be 0.102 nM.

The record behind these values is US20230295310A1 (ABCELLERA BIOLOGICS, published 2023).
